# Biological target: von Willebrand factor full length (Homo sapiens) (UniProt P04275)
# Assay: filter
# Conditions: 3'-idT
sequence,measurement,setting,value
CGGCCGTGCGGTGCCUCCGUCACGUGCAGUGCCG [ARC1533],Kd,"2'-OMe/deoxy composite, single PS, internal PEG, 31.7% bound at 100 nM vWF",4 nM
CGUGCAGUGCCGGCCGTGCGGTGCCUCCGUCACG [ARC1531],Kd,"2'-OMe/deoxy composite, single PS, internal PEG, 20.0% bound at 100 nM vWF",1.5 nM
CGUGCAGUGCCGGCCGTGCGGTGCCUCCGUCACG [ARC1532],Kd,"2'-OMe/deoxy composite, single PS, internal PEG, 19.3% bound at 100 nM vWF",2.6 nM
GCGTGCAGTGCCTAGGCCGTGCGGTGCCTCCGTCACGCC [ARC1028],Kd,"internal PEG spacer after GCGTGCAGTGCCT, DPBS, 0.1 mg/mL BSA, RT",1.1 nM
GCGUGCAGUGCCGGCCGTGCGGTGCCUCCGUCACGC [ARC1527],Kd,"2'-OMe/deoxy composite, single PS, internal PEG, 14.1% bound at 100 nM vWF",3.4 nM
GCGUGCAGUGCCGGCCGTGCGGTGCCUCCGUCACGC [ARC1528],Kd,"2'-OMe/deoxy composite, single PS, internal PEG, 10.2% bound at 100 nM vWF",4.2 nM
GGCGTGCAGTGCCGGCCGTGCGGTGCCTCCGTCACGCC [ARC1029],Kd,"internal PEG spacer after GGCGTGCAGTGCC, DPBS, 0.1 mg/mL BSA, RT",1.4 nM
